In test [1] the target is full-length human IL-36R on cells (human) (UniProt Q9HB29).
Test [2] has the same target. This is another data set of the same source.
Test [3] shares this target. Description: cell-based or functional assay.
Test [4] has as its target Macaca fascicularis IL-36R on cells (Macaca fascicularis). Description: cell-based or functional assay.
Test [5] deals with T1, human IL-36R (IL1RL2) on primary human cells (human) (UniProt Q9HB29).
T1 sequence (looked up): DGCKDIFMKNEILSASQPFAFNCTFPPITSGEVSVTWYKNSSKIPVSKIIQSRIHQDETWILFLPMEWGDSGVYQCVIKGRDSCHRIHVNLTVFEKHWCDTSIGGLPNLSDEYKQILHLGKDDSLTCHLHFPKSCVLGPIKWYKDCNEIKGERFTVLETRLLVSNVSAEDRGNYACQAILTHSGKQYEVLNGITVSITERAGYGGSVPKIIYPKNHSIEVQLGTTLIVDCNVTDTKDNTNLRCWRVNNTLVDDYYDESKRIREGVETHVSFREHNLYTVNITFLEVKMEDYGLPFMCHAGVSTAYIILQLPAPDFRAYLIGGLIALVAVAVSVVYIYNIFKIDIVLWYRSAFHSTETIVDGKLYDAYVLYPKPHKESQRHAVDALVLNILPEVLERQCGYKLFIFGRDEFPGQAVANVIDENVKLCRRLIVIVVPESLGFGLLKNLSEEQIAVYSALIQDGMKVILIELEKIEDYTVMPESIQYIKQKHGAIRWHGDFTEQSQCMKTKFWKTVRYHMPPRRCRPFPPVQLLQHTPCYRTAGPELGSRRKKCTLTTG
Description: cell-based or functional assay.

The target of test [6] is full-length human IL-36R on cells (human) (UniProt Q9HB29). This is another data set of the same source.
Test [7] has the same target. This is another data set of the same source.

Where two headings read alike, the source gives them in different places.

Chain of Macaca fascicularis IL-36R on cells (Macaca fascicularis) (chain, as listed by the source): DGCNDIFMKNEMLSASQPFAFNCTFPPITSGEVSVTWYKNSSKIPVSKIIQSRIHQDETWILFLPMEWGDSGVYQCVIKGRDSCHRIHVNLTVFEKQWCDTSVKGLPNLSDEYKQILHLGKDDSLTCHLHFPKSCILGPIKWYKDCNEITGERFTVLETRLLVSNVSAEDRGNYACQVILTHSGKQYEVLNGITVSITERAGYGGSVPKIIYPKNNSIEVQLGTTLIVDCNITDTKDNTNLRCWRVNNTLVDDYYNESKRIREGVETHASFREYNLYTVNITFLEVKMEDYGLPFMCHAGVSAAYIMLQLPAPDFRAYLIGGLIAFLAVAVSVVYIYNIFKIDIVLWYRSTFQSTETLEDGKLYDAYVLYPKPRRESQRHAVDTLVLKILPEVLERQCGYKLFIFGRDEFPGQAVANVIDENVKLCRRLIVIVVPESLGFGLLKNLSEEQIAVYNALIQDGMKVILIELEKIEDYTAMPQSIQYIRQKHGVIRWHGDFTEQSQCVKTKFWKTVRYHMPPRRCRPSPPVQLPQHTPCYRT

Turning to “human IL-36γ (from UniProt Q9NZH8 18-169) (ligand)”, in test [1], the EC50 (read off the curve) of hIL36γ, NFκB-luciferase RLU, in the presence of 0.1 nM REGN6489 came out at 0.002 nM; the EC50 (read off the curve) of hIL36γ, NFκB-luciferase RLU, in the presence of 0.3 nM REGN6489 came out at 0.008 nM; the EC50 (read off the curve) of hIL36γ, NFκB-luciferase RLU, in the presence of 1 nM REGN6489 amounted to 0.03 nM; the EC50 (read off the curve) of hIL36γ, NFκB-luciferase RLU, in the presence of 3 nM REGN6489 was 0.1 nM. Also, in test [1], the EC50 (read off the curve) of hIL36γ, NFκB-luciferase RLU, in the presence of 9 nM REGN6489 is 0.3 nM and the EC50 (read off the curve) of hIL36γ, NFκB-luciferase RLU, no antibody is 0.001 nM. Besides, in test [2], the EC50 (read off the curve) of hIL36γ, NFκB-luciferase RLU, in the presence of 0.3 nM REGN6490 came out at 0.004 nM; the EC50 (read off the curve) of hIL36γ, NFκB-luciferase RLU, in the presence of 1 nM REGN6490 came out at 0.02 nM; the EC50 (read off the curve) of hIL36γ, NFκB-luciferase RLU, in the presence of 3 nM REGN6490 is 0.06 nM; the EC50 (read off the curve) of hIL36γ, NFκB-luciferase RLU, in the presence of 9 nM REGN6490 came out at 0.2 nM. The substance further came in with an EC50 (read off the curve) of hIL36γ, NFκB-luciferase RLU, no antibody in test [2] of 0.003 nM. Further, in test [3], the EC50, NFκB-luciferase, HEK293/NFκB-luc/hIL-36R cells came to 0.0084 nM. The substance also came in with an EC50, NFκB-luciferase, HEK293/NFκB-luc/MfIL-36R cells in test [4] of 0.062 nM.
On to “rhIL-36α/IL-1F6 [aa6-158] (from UniProt Q9UHA7 6-158) (ligand)”, for which, in test [5], the EC50[M], IL-8 production, Intestinal MyoFibroblasts (InMyoFib), hIL-36α is 1.41e-09 M; the EC50[M], IL-8 production, Normal Epidermal Keratinocytes (NHEK), hIL-36α came out at 1.43e-09 M; the EC50[M], IL-8 production, PB-derived CD14+ Monocytes, hIL-36α came to 2.75e-09 M.
With “rhIL-36γ/IL-1F9 [aa18-169] (from UniProt Q9NZH8 18-169) (ligand)”, in test [5], the EC50[M], IL-8 production, Intestinal MyoFibroblasts (InMyoFib), hIL-36γ was determined as 1.46e-09 M; the EC50[M], IL-8 production, Normal Epidermal Keratinocytes (NHEK), hIL-36γ was 4e-09 M; the EC50[M], IL-8 production, PB-derived CD14+ Monocytes, hIL-36γ came to 2.75e-09 M.
As to “human IL-36α (from UniProt Q9UHA7 6-158) (ligand)”, in test [6], the EC50 (read off the curve) of hIL36α, NFκB-luciferase RLU, in the presence of 0.1 nM REGN6489 was determined as 0.04 nM; the EC50 (read off the curve) of hIL36α, NFκB-luciferase RLU, in the presence of 0.3 nM REGN6489 was 0.2 nM; the EC50 (read off the curve) of hIL36α, NFκB-luciferase RLU, in the presence of 1 nM REGN6489 turned out to be 0.6 nM; the EC50 (read off the curve) of hIL36α, NFκB-luciferase RLU, in the presence of 3 nM REGN6489 was determined as 2 nM. In test [6], the EC50 (read off the curve) of hIL36α, NFκB-luciferase RLU, in the presence of 9 nM REGN6489 was found to be 5 nM and the EC50 (read off the curve) of hIL36α, NFκB-luciferase RLU, no antibody turned out to be 0.02 nM. Moreover, in test [3], the EC50, NFκB-luciferase, HEK293/NFκB-luc/hIL-36R cells was 0.012 nM. Moreover, in test [4], the EC50, NFκB-luciferase, HEK293/NFκB-luc/MfIL-36R cells came out at 0.17 nM. Further, in test [7], the EC50 (read off the curve) of hIL36α, NFκB-luciferase RLU, in the presence of 0.3 nM REGN6490 is 0.05 nM; the EC50 (read off the curve) of hIL36α, NFκB-luciferase RLU, in the presence of 1 nM REGN6490 is 0.2 nM; the EC50 (read off the curve) of hIL36α, NFκB-luciferase RLU, in the presence of 3 nM REGN6490 came out at 0.7 nM; the EC50 (read off the curve) of hIL36α, NFκB-luciferase RLU, in the presence of 9 nM REGN6490 amounted to 2 nM.

Source of the values: patent US20200017592A1.
